Data published in the supplement of paper PMC9732359.
± gives the uncertainty stated by the source.

Test: protein stability index of a GFP-peptide fusion (yeast GPS) (PSI 1-4); higher = more stable; sorted into four equal gates, so the index is relative within each strain
Method in brief: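 The protein stability index of a peptide was calculated by multiplying its read frequency in each gate by that gate's number and adding the products. The peptides were tiled 17-residue stretches of yeast proteins, fused downstream of GFP on a Cherry-expressing plasmid and carried in yeast as a pooled library. Mid-log cultures in leucine-free medium were sorted into four equal gates by GFP/Cherry ratio, and each gate's plasmids were PCR-amplified and Illumina-sequenced.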

Sequence	protein stability index (doa10∆)	protein stability index (pdr5∆)	protein stability index (san1∆)	protein stability index (ubr1∆)
LIERYYPKLTLDFQTNK [RPS17A]	3.12 ± 0.074	3.01 ± 0.061	3.02 ± 0.045	2.74 ± 0.053
KVVTKKYCEIMGDNSQL [SNF2]	3.19 ± 0.17	3.25 ± 0.14	2.88 ± 0.15	2.98 ± 0.1
AVKKLYAIIINYTKDNE [YCS4]	1.82 ± 0.057	2.05 ± 0.068	1.93 ± 0.1	1.91 ± 0.029
VLARISPELSLQRHLSL [RRP43]	2.47 ± 0.054	2.04 ± 0.072	2.02 ± 0.093	2.47 ± 0.05
LSDYNIQKESTLHLVLR [RPS31]	2.78 ± 0.08	2.72 ± 0.051	2.23 ± 0.065	2.58 ± 0.058
GLHPFEVAQLGSLACDT [RPB4]	1.9 ± 0.15	2.25 ± 0.18		2.33 ± 0.08
SQPSKKSFANHTEDEQI [SIR4]	2.81 ± 0.059	2.84 ± 0.052	3.08 ± 0.059	2.83 ± 0.052
AALDITNVQRIAAYIRR [SMC1]	3.08 ± 0.16	3.07 ± 0.17	3.24 ± 0.13	3.09 ± 0.091
HYERTQTKENKRCVGVI [RPN8]	2.9 ± 0.12	2.69 ± 0.1	2.49 ± 0.093	2.43 ± 0.057
FGELQFAFLNAMFFGNY [AAR2]	2.87 ± 0.069	2.61 ± 0.085	2.94 ± 0.067	3 ± 0.064
KKAVKELYEVDVLKVNT [RPL25]	3.01 ± 0.069	3.09 ± 0.073	3.1 ± 0.037	3.13 ± 0.049
NNYPNVELTYSLNNSDS [BRR2]	2.99 ± 0.14	2.42 ± 0.18		
EQKLQTVLETLLSDVNQ [SMC3]				1.22 ± 0.13
YDDFIYLSDLKQFFQMT [PCI8]	2.5 ± 0.075	2.89 ± 0.073	2.61 ± 0.084	2.87 ± 0.051
KESIVLPTVGFDFIKDN [YOR098C/NUP1]	2.39 ± 0.14	2.65 ± 0.11	3.05 ± 0.16	2.83 ± 0.07
QIENLNEVCLEKENRFE [SMC4]	3.27 ± 0.17	3.48 ± 0.1	2.69 ± 0.23	3.4 ± 0.068
QIYTQRAYMRPLGVILT [SCL1]	1.8 ± 0.053	1.38 ± 0.06	1.43 ± 0.12	1.64 ± 0.036
DELMVIYISNLVRSIIA [RPN8]	2.44 ± 0.28	3.22 ± 0.17		3.24 ± 0.11
KFNELVKLMKNITDYET [BRR2]	1.11 ± 0.042	1.21 ± 0.06	1.21 ± 0.14	1.3 ± 0.056
IDIINKLILHAIHIFES [YML103C/NUP188]	1.5 ± 0.053	1.56 ± 0.058	1.42 ± 0.065	1.38 ± 0.034
VSIKDSTGCVVGLSQPD [YMR129W/POM152]	2.09 ± 0.047	2.32 ± 0.058	2.05 ± 0.066	2.28 ± 0.036
SSKTSQPKPLFSFGKSD [YOR098C/NUP1]	2.16 ± 0.043	2.4 ± 0.027	2.19 ± 0.047	2.16 ± 0.035
ETYGSMEMSEKIQFILE [RPN5]	2.41 ± 0.12	2.94 ± 0.082	2.53 ± 0.079	2.77 ± 0.079
KGLIKVNGSPITLVEPE [RPS16A]	3.09 ± 0.095	3.42 ± 0.13	3.06 ± 0.082	3.24 ± 0.11
IFSQMSRLLDILEDYCY [ISW2]	1.66 ± 0.048	2.8 ± 0.094	2.03 ± 0.11	3.01 ± 0.092

Sequence	protein stability index (doa10∆)	protein stability index (pdr5∆)	protein stability index (san1∆)	protein stability index (ubr1∆)
TPGSVSLSAYNLTDEGY [PRP8]	2.23 ± 0.15	2.5 ± 0.077	2.3 ± 0.094	1.96 ± 0.21
WRKWNVKVNHNEKRYAT [RPL4A]	2.36 ± 0.24	2.94 ± 0.16	1.59 ± 0.13	1.94 ± 0.23
LLVDQKQLNSLRRSGQI [SMD1]	2.57 ± 0.047	2.79 ± 0.054	2.96 ± 0.061	2.72 ± 0.051
YPDLKAFHNNLKFLYLL [MED1]	2.06 ± 0.059	2.04 ± 0.05	1.83 ± 0.074	1.93 ± 0.037
YKKPTGGIVTVRSEMGE [FAS1]	2.66 ± 0.13	1.69 ± 0.069	1.32 ± 0.18	1.39 ± 0.082
CNQMENLLESITKLLEI [YCS4]	3.19 ± 0.083	2.8 ± 0.054	2.9 ± 0.061	2.96 ± 0.059
LNITTVFSHAQTAVTCE [RPS27A]	2.38 ± 0.043	2.21 ± 0.047	2.08 ± 0.063	2.09 ± 0.052
HIHKHVKDEAFDDLLKP [RET1]	3.12 ± 0.11	3.4 ± 0.12	3.25 ± 0.073	3.11 ± 0.15
QRETMKERKLRENIAML [SMC1]	3.42 ± 0.24	3.01 ± 0.19	3.04 ± 0.12	3.42 ± 0.066
ELMDRTGLKLYSRITLI [RPP1]	1.57 ± 0.11	2.66 ± 0.1	1.69 ± 0.1	2.43 ± 0.12
FGATTNDDKKTEPDKPA [YJL041W/NSP1]	1.55 ± 0.098	2.48 ± 0.097	2.61 ± 0.15	2.65 ± 0.11
DILLRLCVLWDDLQSSV [YCG1]	1.65 ± 0.067	1.4 ± 0.051	1.72 ± 0.087	2.11 ± 0.07
NDFFPGEVVYLRKQKDS [ITC1]	2.03 ± 0.062	1.39 ± 0.059	1.35 ± 0.12	1.48 ± 0.081
HIPICVTFSFFNPQDTE [RRP45]	1.56 ± 0.048	1.61 ± 0.06	1.28 ± 0.1	1.58 ± 0.046
EVSDFDEMYELTDPMTV [DIB1]		3.48 ± 0.18	2.94 ± 0.23	2.85 ± 0.26
RSPTRRLELLQLSPVKN [SMC4]	1.38 ± 0.26	1.64 ± 0.19		1.68 ± 0.13
EEAGSPLVYRHELITNI [RPB9]	3.17 ± 0.076	3.39 ± 0.058	3.28 ± 0.049	3.38 ± 0.06
AKLSERSNGSVASLSKR [YJL039C/NUP192]	2.33 ± 0.052	2.06 ± 0.043	1.81 ± 0.054	1.89 ± 0.035
QQQMANNNGNPGTTSTG [GAL11]	3.13 ± 0.11	3.44 ± 0.065	3.26 ± 0.049	3.31 ± 0.043
AIKKKEKLLRHVDSLIE [SRB7]	3.15 ± 0.094	2.88 ± 0.12	3.2 ± 0.094	3.27 ± 0.1
LISDQLLEFFELVFSKG [YML103C/NUP188]	2.57 ± 0.077	2.71 ± 0.11	3.1 ± 0.066	2.9 ± 0.057
KNIAQCLSDYTKKISNF [YJL039C/NUP192]	1.79 ± 0.055	2.22 ± 0.055	2.02 ± 0.068	1.49 ± 0.036
KSLKNNFYRPLLRSVLV [YML103C/NUP188]	1.94 ± 0.051	1.87 ± 0.075	2.04 ± 0.085	2.29 ± 0.051
KISFNLRLKLFLYEILS [SRB8]	1.22 ± 0.066	1.26 ± 0.063	1.24 ± 0.092	1.17 ± 0.048
